Laboratory results published in article PMC10453637.

System: O=C1CCCCC1
Test: purified protein
Conditions: apparent, 0.3 mM NADPH, 50 mM sodium phosphate pH 7.7, 25 °C

Substance: Ac CHMO (cyclohexanone monooxygenase) (Acinetobacter johnsonii)
- Km: 4.09 ± 1.81 µM
